Test [1] addresses KDR (VEGFR-2), full-length receptor on cells (human), P35968. In words: specific binding of neutravidin-HRP complex at 3.33 nM to KDR-transfected cells; reference P5-XB (1X) + P1-XB (3X).
The target is the same in test [2]. Kind of test: competition with 300 pM 125I-VEGF on KDR-transfected 293H cells; peptide 30 µM. The following applies: remark: other sources report otherwise.
Test [3] has the same target. Kind of test: competition with 300 pM 125I-VEGF on KDR-transfected 293H cells; peptide 0.3 µM. The following applies: remark: other sources report otherwise.
Test [4] shares this target. In words: specific binding of neutravidin-HRP complex at 2.78 nM to KDR-transfected cells; reference P1-XB (3X) + P6-XB (1X) at 5.55 nM.

Positions of bridges follow the written chain, without caps; N, C: chain ends. Groups on a side chain read outwards from the residue. Chains are numbered I, II in the order given. *: point of attachment. Biotin = O=C1N[C@H]2[C@H](CS[C@H]2CCCCC(=O)*)N1; AEEA = NCCOCCOCC(=O)O

Chain of KDR (VEGFR-2), full-length receptor on cells (human), P35968 (P35968 20-1356): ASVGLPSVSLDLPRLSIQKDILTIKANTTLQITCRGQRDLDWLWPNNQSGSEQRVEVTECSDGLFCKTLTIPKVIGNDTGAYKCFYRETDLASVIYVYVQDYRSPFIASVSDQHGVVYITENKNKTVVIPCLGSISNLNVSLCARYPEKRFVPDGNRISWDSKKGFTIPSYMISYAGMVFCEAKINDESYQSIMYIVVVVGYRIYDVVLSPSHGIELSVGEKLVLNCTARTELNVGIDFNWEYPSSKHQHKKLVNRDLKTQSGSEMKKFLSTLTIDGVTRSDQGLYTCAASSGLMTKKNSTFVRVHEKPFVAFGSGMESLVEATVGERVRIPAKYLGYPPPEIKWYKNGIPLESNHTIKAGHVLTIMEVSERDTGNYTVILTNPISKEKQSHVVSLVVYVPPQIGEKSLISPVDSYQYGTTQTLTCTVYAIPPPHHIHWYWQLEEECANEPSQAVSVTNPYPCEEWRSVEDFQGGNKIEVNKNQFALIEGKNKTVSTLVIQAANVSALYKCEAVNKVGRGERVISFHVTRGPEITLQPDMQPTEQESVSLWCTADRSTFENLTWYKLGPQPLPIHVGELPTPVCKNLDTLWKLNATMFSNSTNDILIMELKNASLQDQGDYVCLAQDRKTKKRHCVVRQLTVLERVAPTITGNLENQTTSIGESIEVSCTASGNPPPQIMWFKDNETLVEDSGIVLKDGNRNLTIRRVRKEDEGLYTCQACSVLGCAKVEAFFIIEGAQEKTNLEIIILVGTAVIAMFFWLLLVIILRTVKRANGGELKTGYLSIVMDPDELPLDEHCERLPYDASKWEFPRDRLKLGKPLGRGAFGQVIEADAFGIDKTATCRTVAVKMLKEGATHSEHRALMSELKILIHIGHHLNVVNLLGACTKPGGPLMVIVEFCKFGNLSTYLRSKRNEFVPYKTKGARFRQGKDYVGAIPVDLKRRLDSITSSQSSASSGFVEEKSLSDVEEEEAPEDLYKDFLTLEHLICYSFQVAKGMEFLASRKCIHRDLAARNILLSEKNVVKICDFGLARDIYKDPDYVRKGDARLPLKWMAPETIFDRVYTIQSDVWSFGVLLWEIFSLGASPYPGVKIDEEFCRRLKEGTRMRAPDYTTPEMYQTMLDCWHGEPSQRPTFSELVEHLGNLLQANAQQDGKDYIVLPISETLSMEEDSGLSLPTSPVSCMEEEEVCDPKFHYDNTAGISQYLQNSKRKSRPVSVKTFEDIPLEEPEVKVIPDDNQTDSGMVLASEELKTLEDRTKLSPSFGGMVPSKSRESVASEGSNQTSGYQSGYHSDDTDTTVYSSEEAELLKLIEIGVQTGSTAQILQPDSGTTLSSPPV

B1: P1-XB (1X) + P6-XB (1X) + P5-XB (2X) / neutravidin-HRP (peptide, not shown: large carriers; small tags and cut ends)
peptide 1: Ac-GDSRVCWEDSWGGEVCFRYDPGGGK([AEEA-AEEA-Biotin])-NH2
peptide 2: Ac-AGPKWCEEDWYYCMITGTGGGK([AEEA-AEEA-Biotin])-NH2
modifications: disulfide I:6-I:16, II:6-II:13 (inferred); not fully specified; also: bound via biotin to neutravidin-HRP
For the molecule B1, in test [1], the Heteromer/Monomer Ratio stood at 213 fold.

B2: P5-XB (peptide)
peptide: Ac-AGPKWCEEDWYYCMITGTGGGK([AEEA-AEEA-Biotin])-NH2
modifications: disulfide 6-13 (inferred)
For the molecule B2, the % inhibition of 125I-labeled VEGF binding was determined as 48% in test [2] and 24.4% in test [3].

B3: P1-XB (2X) + P6-XB (1X) + P5-XB (1X) / neutravidin-HRP (peptide, not shown: large carriers; small tags and cut ends)
peptide 1: Ac-GDSRVCWEDSWGGEVCFRYDPGGGK([AEEA-AEEA-Biotin])-NH2
peptide 2: Ac-AGPKWCEEDWYYCMITGTGGGK([AEEA-AEEA-Biotin])-NH2
modifications: disulfide I:6-I:16, II:6-II:13 (inferred); not fully specified; also: bound via biotin to neutravidin-HRP
In the case of B3, the Heteromer/Monomer Ratio in test [1] amounted to 109 fold.

B4: P1-XB (1X) + P6-XB (1X) + P12-XB (2X) / neutravidin-HRP (peptide, not shown: large carriers; small tags and cut ends)
peptide 1: Ac-GDSRVCWEDSWGGEVCFRYDPGGGK([AEEA-AEEA-Biotin])-NH2
peptide 2: Ac-AGPTWCEDDWYYCWLFGTGGGK([AEEA-AEEA-Biotin])-NH2
modifications: disulfide I:6-I:16, II:6-II:13 (inferred); not fully specified; also: bound via biotin to neutravidin-HRP
As for B4, in test [4], the Heteromer/Monomer Ratio amounted to 47 fold.

B5: P1-XB (1X) + P6-XB (2X) + P5-XB (1X) / neutravidin-HRP (peptide, not shown: large carriers; small tags and cut ends)
peptide 1: Ac-GDSRVCWEDSWGGEVCFRYDPGGGK([AEEA-AEEA-Biotin])-NH2
peptide 2: Ac-AGPKWCEEDWYYCMITGTGGGK([AEEA-AEEA-Biotin])-NH2
modifications: disulfide I:6-I:16, II:6-II:13 (inferred); not fully specified; also: bound via biotin to neutravidin-HRP
Turning to B5, in test [1], the Heteromer/Monomer Ratio was 242 fold.
